According to publication PMC2917807 (Journal of molecular biology, 2010):

What was measured:
[1] = molecular target: LexA-SoxS bait fusion protein (pGILDA-SoxS), wild type SoxS (Escherichia coli) (UniProt P0A9E2); experiment: two-hybrid
[2] = molecular target: T1, LexA-SoxS bait fusion protein (pGILDA-SoxS), wild type SoxS (Escherichia coli, UniProt P0A9E2 1-107); experiment: two-hybrid
T1 sequence (looked up): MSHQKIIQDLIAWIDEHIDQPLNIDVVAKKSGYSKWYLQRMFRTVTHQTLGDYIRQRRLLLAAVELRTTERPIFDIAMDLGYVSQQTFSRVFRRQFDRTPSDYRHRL

Sequence of B42AD-αCTD prey fusion protein (pB42AD-αCTD) (domain or fragment) (A1AGI6 whole entry, the tested form may be a part): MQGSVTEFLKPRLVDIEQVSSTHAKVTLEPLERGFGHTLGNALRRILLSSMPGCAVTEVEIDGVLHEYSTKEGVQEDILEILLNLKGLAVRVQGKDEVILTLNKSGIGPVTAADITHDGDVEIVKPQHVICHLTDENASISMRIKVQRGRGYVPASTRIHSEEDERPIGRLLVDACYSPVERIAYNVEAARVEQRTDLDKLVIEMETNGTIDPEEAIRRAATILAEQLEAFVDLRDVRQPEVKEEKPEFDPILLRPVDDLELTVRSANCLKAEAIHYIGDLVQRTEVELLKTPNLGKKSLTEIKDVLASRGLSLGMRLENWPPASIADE

| Molecule | induction ratio of reporter β-galactosidase [1] | induction ratio of reporter β-galactosidase [2] |
| --- | --- | --- |
| B42AD-αCTD prey fusion protein (pB42AD-αCTD) (domain or fragment) | 25 |  |
| B42AD-σ^70 R4 prey fusion protein (pB42AD-σ^70 R4), wild type region 4 of σ^70 (domain or fragment, Escherichia coli, UniProt P00579 530-613, looked up) LPLDSATTESLRAATHDVLAGLTAREAKVLRMRFGIDMNTDYTLEEVGKQFDVTRERIRQIEAKALRKLRHPSRSEVLRSFLDD |  | 14 |
